Data as given in the supplement of paper PMC9170038.

System: MS2 coat protein
Test: apparent KD of MS2 coat protein; designed switch direction (-1 OFF switch, 1 ON switch): -1; higher = weaker reporter binding
Details: Eterna round: R98
Method: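 RNA-MaP: designed FMN/MS2 RNA switches (84 nt design region) are transcribed on-chip within common flanks and titrated with SNAP-549-labelled MS2 coat protein (about 1-3000 nM) in 100 mM Tris pH 7.5, 80 mM KCl, 4 mM MgCl2, without or with 200 uM FMN. Median apparent KD per design; activation ratio = KD,OFF / KD,ON.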

Row | Sequence | apparent KD of MS2 coat protein (input ligand: FMN 200 uM) | apparent KD of MS2 coat protein (input ligand: none)
1 | AACCUGACAUAAUAAUGUAGAAAUACAUGAGGAUCACCCAUGUAGGAUAUGCAGUGGAAUACACUGCAGAAGGACAUAGUCAGG [Exclusion NG 3/8-B1] | 21.9 nM | 14.8 nM
2 | ACAUGGAAGCGAGGAUAUGCGGCGGAUUUAAACGCAGAAGGCGUUUAUUUAACUCGCAAUAACAUGAGGAUCACCCAUGUAUAA [AK-NGROCr2-ExNG1-5.1] | 59.4 nM | 55.9 nM
3 | CUGGUGAUGUAAGGAUAUGCUGAGGAUAACUCAGCAGAAGGUACAUGAGGAUCACCCAUGUAAAUGAAAGAUAAUAAACACCAG [Excusion NG 1/16-B2] | 30.9 nM | 15.9 nM
4 | GAUACAUAGCAAGGAUAUCCACAUGAGGAUCACCCAUGUGCGUAAUCUGGGCGGUGGAAGAAAGUGGAGAAGGUGUUAGGUUGA [Atia] | 106 nM | 64.2 nM
5 | GGAUAACAUGUAGGAUAUCCAGCAUUGACCAUCGGAGAAGGACAUGAGGAUCACCCAUGUACCGAUACAAUGGAAUAAGGGAAU [xclu_NG1_cac3] | 17.9 nM | 15.4 nM
6 | GGUUGUUACGCAGGAUAUUGCCAACAGGCAGUGGGAUAUCCGAAAGGAGAAGGUUCGCCAACAGGCGAGAAGGGCGGGUUAACC [pwkr exNG2 2xF7 2FMN.10.7] | 94 nM | 400 nM
7 | UAAUAAUAAUAAUACGUCAAUUACAUGAGGAUCACCCAUGUAUAGGAUAUGCAGUGGAAUACACUGCAGAAGGAUACAAAGACG [Exclusion NG 3/3-B1] | 22.8 nM | 19.6 nM
8 | UGUAAAAUUGAUCCUGCAAGUACAUGAGGAUCACCCAUGUGCUAGGAUAUCGCUCAGCUAAAGACCGAGAAGGAGCACAAUGUA [Adiraat] | 67.1 nM | 27.9 nM
